Test [1] has as its target hemagglutinin on BS/07 H1N1 virus (A/Brisbane/59/2007) (Influenza A virus A/Brisbane/59/2007 (H1N1)). The test is described as follows: cell-based or functional assay.
Test [2] has as its target BS/07 H1 HA (recombinant ectodomain of hemagglutinin from A/Brisbane/59/2007, H1N1) (Influenza A virus A/Brisbane/59/2007 (H1N1)).

F10 IgG (antibody): in test [1], the IC50, neutralization of BS/07 H1N1 infection stood at 1.85 µg/mL.

Consider F10 scFv (phage-free soluble, E-tag), for which the normalized binding affinity in test [2] was determined as 1. In addition, in test [1], the normalized neutralizing potency against BS/07 H1N1 is 1.
